The record followed here is the supplement of paper PMC7877785.

± gives the uncertainty stated by the source.

The series is described as follows: self-splicing fitness, log relative to wild type (ln ratio); higher = more splicing; Tetrahymena group I intron in knt gene, E. coli kanamycin selection, DiMSum; sequences stand for … in CUCUCU…GGAGGGAAAAGUUAUCAGGCAUGCACCUGGUAGCUAGUCUUUAAACCAAUAGAUUGCAUCGGUUUAAAAGGCAAGACCGUCAAAUUGCGGGAAAGGGGUCAACAGCCGUUCAGUACCAAGUCUCAGGGGAAACUUUGAGAUGGCCUUGCAAAGGGUAUGGUAAUAAGCUGACGGACAUGGUCCUAACCACGCAGCCAAGUCCUAAGUCAACAGAUCUUCUGUUGAUAUGGAUGCAGUUCACAGACUAAAUGUCGGUCGGGGAAGAUGUAUUCUUCUCAUAAGAUAUAGUCGGACCUCUCCUUAAUGGGAGCUAGCGGAUGAAGUGAUGCAACACUGGAGCCGCUGGGAACUAAUUUGUAUGCGAAAGUAUAUUGAUUAGUUUUGGAGUACUCGUGGUCG
An outline of the steps:
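Six replicate transformations of E. coli BL21(DE3) with a pET-22b(+) library were grown overnight at 37°C or 30°C. The library randomised all eight P1ex-region intron nucleotides, the intron lying in the knt kanamycin-resistance gene, and plates were LB agar with or without 25 μg/mL kanamycin plus 100 μg/mL carbenicillin, 50 μM IPTG and 0.2% rhamnose. Pooled colonies were amplicon-sequenced on an Illumina HiSeq 2500, and fitness is the DiMSum error-weighted combination of wild-type-normalised replicate fold changes, kanamycin versus none.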

For the sequence AGGUAGCAAUAUUACGGCCC, the “self-splicing fitness (ln)” value by setting is: (30 °C) -2.77 ± 0.044; (37 °C) -1.91 ± 0.058. Consider CUAGAGCAAUAUUACGUUUG, for which the “self-splicing fitness (ln)” value (30 °C) was -1.33 ± 0.088 and the “self-splicing fitness (ln)” value (37 °C) is -0.528 ± 0.1. In the case of AGCUAGCAAUAUUACGGGGG, the “self-splicing fitness (ln)” value was -3.05 ± 0.31 (30 °C) and -1.64 ± 0.27 (37 °C). For the sequence GAAAAGCAAUAUUACGUCUG, the “self-splicing fitness (ln)” value (30 °C) is -0.835 ± 0.068 and the “self-splicing fitness (ln)” value (37 °C) is -0.219 ± 0.084. On the same counts, the results for GUAAAGCAAUAUUACGCGCU are -1.4 ± 0.075 and -0.523 ± 0.096.

Consider GGGGAGCAAUAUUACGGAUU, for which the “self-splicing fitness (ln)” value (30 °C) was -3.35 ± 0.28 and the “self-splicing fitness (ln)” value (37 °C) was -2.15 ± 0.23.

For UCACAGCAAUAUUACGGAAC, the “self-splicing fitness (ln)” value (30 °C) was -2.98 ± 0.21 and the “self-splicing fitness (ln)” value (37 °C) is -2.45 ± 0.26. On the same counts, the results for UCACAGCAAUAUUACGUGUG are -4.09 ± 0.15 and -2.13 ± 0.1. The corresponding values for GCAAAGCAAUAUUACGAACA are -1.89 ± 0.14 and -1.73 ± 0.12.

Regarding CUCAAGCAAUAUUACGUCGA, the “self-splicing fitness (ln)” value reads like this: (30 °C) -3.37 ± 0.31; (37 °C) -1.41 ± 0.18.

In the case of CAAUAGCAAUAUUACGAGAG, the “self-splicing fitness (ln)” value is -3.64 ± 0.23 (30 °C) and -1.52 ± 0.12 (37 °C). On the same counts, the results for UCCGAGCAAUAUUACGUUGA are -2.17 ± 0.097 and -0.915 ± 0.087.

UAAAAGCAAUAUUACGGUGC: the “self-splicing fitness (ln)” value by setting is: (30 °C) -3.65 ± 0.42; (37 °C) -2.92 ± 0.35. The corresponding values for UAACAGCAAUAUUACGGUGA are -1.08 ± 0.075 and -0.658 ± 0.082. On the same counts, the results for GAAUAGCAAUAUUACGGUCC are -2.78 ± 0.24 and -0.862 ± 0.25. On the same counts, the results for UCCGAGCAAUAUUACGCAGC are -4.03 ± 0.35 and -2.51 ± 0.39.

For the sequence CGAGAGCAAUAUUACGGGAG, the “self-splicing fitness (ln)” value reads like this: (30 °C) -2.83 ± 0.16; (37 °C) -0.597 ± 0.16. The corresponding values for AUAUAGCAAUAUUACGGGGA are -2.21 ± 0.32 and -1.72 ± 0.41. The corresponding values for UCACAGCAAUAUUACGUCGC are -2.99 ± 0.19 and -2.13 ± 0.19.

Take AGAAAGCAAUAUUACGGCUC: the “self-splicing fitness (ln)” value (30 °C) was -1.28 ± 0.091 and the “self-splicing fitness (ln)” value (37 °C) is -0.338 ± 0.12.

For GACUAGCAAUAUUACGUCGA, the “self-splicing fitness (ln)” value (30 °C) was -1.96 ± 0.11 and the “self-splicing fitness (ln)” value (37 °C) is -0.484 ± 0.1. The corresponding values for AUGUAGCAAUAUUACGCGGA are -2.41 ± 0.3 and -1.09 ± 0.2.

In the case of CUCGAGCAAUAUUACGCGAG, the “self-splicing fitness (ln)” value reads like this: (30 °C) -3.97 ± 0.42; (37 °C) -2.98 ± 0.47. Consider AGACAGCAAUAUUACGAGCA, for which the “self-splicing fitness (ln)” value is -1.46 ± 0.12 (30 °C) and -0.648 ± 0.13 (37 °C).

Regarding AUUAAGCAAUAUUACGGAAC, the “self-splicing fitness (ln)” value (30 °C) was -3.44 ± 0.2 and the “self-splicing fitness (ln)” value (37 °C) is -0.822 ± 0.13. The corresponding values for AAAAAGCAAUAUUACGCGAU are -2.51 ± 0.16 and -1.07 ± 0.14. Consider AUUGAGCAAUAUUACGUUAC, for which the “self-splicing fitness (ln)” value (37 °C) is -1.76 ± 0.3. In the case of UGAGAGCAAUAUUACGUCAA, the “self-splicing fitness (ln)” value by setting is: (30 °C) -3.55 ± 0.29; (37 °C) -2.89 ± 0.3. Take CGUGAGCAAUAUUACGACAA: the “self-splicing fitness (ln)” value (37 °C) was -3.33 ± 0.25. For the sequence AACCAGCAAUAUUACGUCCG, the “self-splicing fitness (ln)” value was -1.56 ± 0.073 (30 °C) and -0.0163 ± 0.091 (37 °C). The corresponding values for CUCCAGCAAUAUUACGUUGG are -3.68 ± 0.19 and -2.49 ± 0.21. Turning to CAUUAGCAAUAUUACGCAAC, the “self-splicing fitness (ln)” value by setting is: (30 °C) -2.14 ± 0.46; (37 °C) -2.51 ± 0.3. On the same counts, the results for ACUGAGCAAUAUUACGAUCA are -2.89 ± 0.43 and -2.9 ± 0.34.

Consider ACUUAGCAAUAUUACGCGGU, for which the “self-splicing fitness (ln)” value (30 °C) was -3.26 ± 0.41 and the “self-splicing fitness (ln)” value (37 °C) is -1.84 ± 0.26.

UAACAGCAAUAUUACGAGCC: the “self-splicing fitness (ln)” value was -2.65 ± 0.24 (30 °C) and -2.24 ± 0.49 (37 °C). On the same counts, the results for UUGCAGCAAUAUUACGAUCU are -2.34 ± 0.22 and -1.78 ± 0.21. On the same counts, the results for UGGUAGCAAUAUUACGGGUC are -3.15 ± 0.4 and -2.9 ± 0.47.

Consider UAAAAGCAAUAUUACGGAGU, for which the “self-splicing fitness (ln)” value (30 °C) was -3.65 ± 0.2 and the “self-splicing fitness (ln)” value (37 °C) is -2.45 ± 0.19. On the same counts, the results for CUCUAGCAAUAUUACGUUGA are -2.49 ± 0.27 and -3.81 ± 0.36. The corresponding values for CAGUAGCAAUAUUACGUCGA are -3.45 ± 0.25 and -1.49 ± 0.17.

CGCAAGCAAUAUUACGAGCC: the “self-splicing fitness (ln)” value was -1.07 ± 0.095 (30 °C) and -0.349 ± 0.12 (37 °C). The corresponding values for GUCAAGCAAUAUUACGGUUA are -2.2 ± 0.14 and -0.972 ± 0.1. The corresponding values for UUGGAGCAAUAUUACGCUAG are -2.56 ± 0.23 and -1.64 ± 0.2. On to UUAAAGCAAUAUUACGGUCA, for which the “self-splicing fitness (ln)” value was 0.199 ± 0.071 (30 °C) and 0.479 ± 0.11 (37 °C). On to GCGGAGCAAUAUUACGGAAA, for which the “self-splicing fitness (ln)” value (37 °C) was -1.54 ± 0.46. Take AGGUAGCAAUAUUACGGUCG: the “self-splicing fitness (ln)” value (30 °C) was -0.351 ± 0.014 and the “self-splicing fitness (ln)” value (37 °C) is -0.0478 ± 0.034. On the same counts, the results for ACGAAGCAAUAUUACGAGCA are -2.84 ± 0.14 and -1.32 ± 0.12.

For GAGAAGCAAUAUUACGUCGU, the “self-splicing fitness (ln)” value (30 °C) is -2.16 ± 0.075 and the “self-splicing fitness (ln)” value (37 °C) was -0.855 ± 0.077. Turning to GGCGAGCAAUAUUACGCGGG, under “37 °C”, the “self-splicing fitness (ln)” value is -2.89 ± 0.38.

In the case of GACGAGCAAUAUUACGCCUG, under “37 °C”, the “self-splicing fitness (ln)” value is -1.56 ± 0.47.

AUCAAGCAAUAUUACGUUGG: the “self-splicing fitness (ln)” value reads like this: (30 °C) -2.7 ± 0.13; (37 °C) -2.25 ± 0.16. The corresponding values for UACUAGCAAUAUUACGAUAC are -2.63 ± 0.2 and -1.91 ± 0.25. The corresponding values for UGAGAGCAAUAUUACGAAGG are -2.94 ± 0.18 and -1.85 ± 0.27. The corresponding values for GCCGAGCAAUAUUACGCACU are -1.64 ± 0.11 and -0.365 ± 0.13. For the sequence CCCCAGCAAUAUUACGAACA, the “self-splicing fitness (ln)” value (30 °C) was -2.51 ± 0.17 and the “self-splicing fitness (ln)” value (37 °C) was -2.85 ± 0.28. On the same counts, the results for GAGCAGCAAUAUUACGCGCC are -3.87 ± 0.28 and -3.17 ± 0.35. The corresponding values for CAUUAGCAAUAUUACGAGCG are 0.0198 ± 0.086 and 0.256 ± 0.098.

As to AUUAAGCAAUAUUACGUCGU, the “self-splicing fitness (ln)” value (30 °C) was -1.43 ± 0.094 and the “self-splicing fitness (ln)” value (37 °C) was -0.383 ± 0.12. The corresponding values for CAUUAGCAAUAUUACGCCUU are -3.03 ± 0.36 and -1.84 ± 0.21. On the same counts, the results for UAGGAGCAAUAUUACGUGAG are -2.42 ± 0.14 and -1.55 ± 0.14. Consider AAUCAGCAAUAUUACGUGCC, for which the “self-splicing fitness (ln)” value (30 °C) is -1.4 ± 0.14 and the “self-splicing fitness (ln)” value (37 °C) was -0.598 ± 0.16. On the same counts, the results for CGUCAGCAAUAUUACGAGUU are -3.3 ± 0.22 and -1.84 ± 0.22. On the same counts, the results for CCCGAGCAAUAUUACGAUAC are -2.29 ± 0.27 and -1.57 ± 0.36. UCAGAGCAAUAUUACGUUCA: the “self-splicing fitness (ln)” value reads like this: (30 °C) -1.71 ± 0.27; (37 °C) -2.48 ± 0.39. On the same counts, the results for UUUUAGCAAUAUUACGGUAU are -2.87 ± 0.32 and -3.11 ± 0.47. Consider GUGAAGCAAUAUUACGGCAC, for which the “self-splicing fitness (ln)” value is -0.747 ± 0.16 (30 °C) and -0.289 ± 0.33 (37 °C). On the same counts, the results for CACGAGCAAUAUUACGGGCG are -0.98 ± 0.11 and -1.14 ± 0.15.

Turning to ACCUAGCAAUAUUACGUGGC, the “self-splicing fitness (ln)” value (30 °C) was -3.35 ± 0.21 and the “self-splicing fitness (ln)” value (37 °C) was -2.02 ± 0.21.

Regarding AUUAAGCAAUAUUACGCUGC, the “self-splicing fitness (ln)” value was -3.87 ± 0.27 (30 °C) and -1.98 ± 0.22 (37 °C). Turning to AGCAAGCAAUAUUACGGGCU, the “self-splicing fitness (ln)” value (30 °C) is -2.45 ± 0.22 and the “self-splicing fitness (ln)” value (37 °C) was -2.09 ± 0.31. On the same counts, the results for UUAAAGCAAUAUUACGGUGG are -0.511 ± 0.079 and 0.0701 ± 0.1. On the same counts, the results for UUUUAGCAAUAUUACGGCGA are -0.835 ± 0.17 and 0.114 ± 0.18.

As for AUCUAGCAAUAUUACGAAGU, the “self-splicing fitness (ln)” value (30 °C) was -0.522 ± 0.24 and the “self-splicing fitness (ln)” value (37 °C) is -0.543 ± 0.31.

As for UGCAAGCAAUAUUACGAAGA, the “self-splicing fitness (ln)” value (30 °C) was -1.99 ± 0.27 and the “self-splicing fitness (ln)” value (37 °C) was -2.3 ± 0.31. The corresponding values for GCUGAGCAAUAUUACGUCCG are -2.38 ± 0.23 and -2.3 ± 0.31. On the same counts, the results for AUGCAGCAAUAUUACGAAGC are -3.21 ± 0.19 and -0.72 ± 0.21.
